6 substances from patent publication US20100104555A1 can be followed below.

What all share (assay): cell-based or functional assay
The target of test [1] is E1E2 Env of HCV isolate H (genotype 1a) on HCVpp (hepatitis C virus genotype 1a, isolate H).
Test [2] concerns the target E1E2 Env of HCV isolate J6 (genotype 2a) on HCVpp (hepatitis C virus genotype 2a, isolate J6) (UniProt P26660).
The target in test [3] is E1E2 Env of HCV isolate OH8 (genotype 1b) on HCVpp (hepatitis C virus genotype 1b, isolate OH8).
Test [4] has as its target E1E2 Env of HCV isolate UKN1B12.16 (genotype 1b) on HCVpp (hepatitis C virus genotype 1b, isolate UKN1B12.16).
Test [5] addresses E1E2 Env of HCV isolate UKN2A1.2 (genotype 2a) on HCVpp (hepatitis C virus genotype 2a, isolate UKN2A1.2).
Test [6] deals with E1E2 Env of HCV isolate UKN2B1.1 (genotype 2b) on HCVpp (hepatitis C virus genotype 2b, isolate UKN2B1.1).
Test [7] deals with E1E2 Env of HCV isolate UKN4.21.16 (genotype 4) on HCVpp (hepatitis C virus genotype 4, isolate UKN4.21.16).
Test [8] deals with E1E2 Env of HCV isolate UKN5.15.7 (genotype 5) on HCVpp (hepatitis C virus genotype 5, isolate UKN5.15.7).
Test [9] deals with VSV (control pseudotype virus).

Chain of MAb AR3B (antibody) (VH): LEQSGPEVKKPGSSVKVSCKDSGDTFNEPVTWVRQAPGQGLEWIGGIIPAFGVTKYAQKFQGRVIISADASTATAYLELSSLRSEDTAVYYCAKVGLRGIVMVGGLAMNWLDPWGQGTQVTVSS
Chain of MAb AR3B (antibody) (VL): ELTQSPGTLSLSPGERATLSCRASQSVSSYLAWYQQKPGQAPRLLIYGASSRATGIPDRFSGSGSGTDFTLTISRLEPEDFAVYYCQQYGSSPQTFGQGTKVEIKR
Chain of E1E2 Env of HCV isolate J6 (genotype 2a) on HCVpp (hepatitis C virus genotype 2a, isolate J6) (P26660 192-750 limits assumed): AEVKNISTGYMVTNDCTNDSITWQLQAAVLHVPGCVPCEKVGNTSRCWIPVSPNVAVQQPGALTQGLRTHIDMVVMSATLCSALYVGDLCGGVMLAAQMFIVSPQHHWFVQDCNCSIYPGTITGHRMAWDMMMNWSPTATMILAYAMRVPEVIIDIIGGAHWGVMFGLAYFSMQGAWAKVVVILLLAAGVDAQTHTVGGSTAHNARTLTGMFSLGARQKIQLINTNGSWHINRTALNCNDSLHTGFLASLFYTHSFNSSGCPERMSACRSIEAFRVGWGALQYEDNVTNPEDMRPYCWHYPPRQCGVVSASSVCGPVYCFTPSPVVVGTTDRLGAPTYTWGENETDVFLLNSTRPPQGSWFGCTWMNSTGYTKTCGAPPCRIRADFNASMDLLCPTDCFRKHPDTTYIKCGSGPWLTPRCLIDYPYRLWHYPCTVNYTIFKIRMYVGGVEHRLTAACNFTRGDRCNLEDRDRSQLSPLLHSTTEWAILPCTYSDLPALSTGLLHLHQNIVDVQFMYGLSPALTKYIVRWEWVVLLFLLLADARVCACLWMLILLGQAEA
Chain of MAb AR1B (antibody) (VH): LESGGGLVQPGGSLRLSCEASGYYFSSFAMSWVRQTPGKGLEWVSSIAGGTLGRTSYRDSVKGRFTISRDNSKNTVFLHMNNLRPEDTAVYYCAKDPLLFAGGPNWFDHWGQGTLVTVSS
Chain of MAb AR1B (antibody) (VL): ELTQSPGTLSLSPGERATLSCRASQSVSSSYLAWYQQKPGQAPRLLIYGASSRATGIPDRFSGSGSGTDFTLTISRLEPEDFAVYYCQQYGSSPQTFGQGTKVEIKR
Chain of MAb AR2A (antibody) (VH): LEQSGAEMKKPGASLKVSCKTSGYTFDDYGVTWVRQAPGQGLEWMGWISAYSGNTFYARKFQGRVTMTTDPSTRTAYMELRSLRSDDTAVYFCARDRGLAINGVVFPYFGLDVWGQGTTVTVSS
Chain of MAb AR2A (antibody) (VL): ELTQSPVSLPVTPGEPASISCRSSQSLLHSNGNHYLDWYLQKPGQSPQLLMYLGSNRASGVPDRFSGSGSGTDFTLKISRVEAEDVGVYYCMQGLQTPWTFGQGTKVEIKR
Chain of MAb AR3C (antibody) (VH): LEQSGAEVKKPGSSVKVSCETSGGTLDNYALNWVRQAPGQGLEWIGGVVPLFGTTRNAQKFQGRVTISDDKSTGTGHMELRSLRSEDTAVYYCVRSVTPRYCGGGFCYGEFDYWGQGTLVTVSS
Chain of MAb AR3C (antibody) (VL): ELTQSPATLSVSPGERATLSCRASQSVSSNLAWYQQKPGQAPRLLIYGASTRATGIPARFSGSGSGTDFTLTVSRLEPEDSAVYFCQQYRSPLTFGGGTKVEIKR

MAb AR2A (antibody): the Neutralizing activity (IC50), HCVpp in test [1] was 5 µg/mL; in [2], > 50 µg/mL; in [3] it was > 50 µg/mL; in test [4], > 50 µg/mL; in test [5], 5 µg/mL; in [6], 10 µg/mL. Further, the Neutralizing activity (IC50), HCVpp stood at 1 µg/mL in test [7] and 10 µg/mL in test [8]. For the same substance, the Neutralizing activity (IC50), control pseudotype in [9] was > 50 µg/mL.

As for MAb AR1B (antibody), the Neutralizing activity (IC50), HCVpp in test [2], in test [3], in test [4], in [5], in test [6] and in test [7] was > 50 µg/mL throughout. Also, the Neutralizing activity (IC50), HCVpp in test [8] is > 50 µg/mL. For the same substance, in test [9], the Neutralizing activity (IC50), control pseudotype was > 50 µg/mL.

Consider MAb AR3C (antibody), for which the Neutralizing activity (IC50), HCVpp in test [1] worked out at 1 µg/mL; in test [2], 10 µg/mL; in test [3] it was 5 µg/mL; in [4], 1 µg/mL; in test [5], 10 µg/mL; in test [6] it was 10 µg/mL. Also, the Neutralizing activity (IC50), HCVpp in test [7] and in [8] was 1 µg/mL each time. In addition, the Neutralizing activity (IC50), control pseudotype in test [9] was > 50 µg/mL.

MAb AR3B (antibody): the Neutralizing activity (IC50), HCVpp is 1 µg/mL in test [1]; 10 µg/mL in [2]; 5 µg/mL in test [3]; 1 µg/mL in test [4]; 5 µg/mL in test [5]; 10 µg/mL in test [6]. Also, the Neutralizing activity (IC50), HCVpp in [7] and in test [8] was 1 µg/mL in each case. Moreover, in test [9], the Neutralizing activity (IC50), control pseudotype is > 50 µg/mL.

As to MAb AR3D (antibody), the Neutralizing activity (IC50), HCVpp in [1] came to 1 µg/mL; in test [2] it was 50 µg/mL; in test [3], 5 µg/mL; in test [4], 1 µg/mL; in [5], 25 µg/mL; in [6], 25 µg/mL. The Neutralizing activity (IC50), HCVpp turned out to be 1 µg/mL in test [7] and 10 µg/mL in test [8]. For the same substance, the Neutralizing activity (IC50), control pseudotype in test [9] was > 50 µg/mL.

Consider MAb AR1A (antibody), for which the Neutralizing activity (IC50), HCVpp in test [2], in test [3], in [4], in test [5], in test [6] and in test [7] was > 50 µg/mL each time. In addition, the Neutralizing activity (IC50), HCVpp in test [8] is > 50 µg/mL. Moreover, the Neutralizing activity (IC50), control pseudotype in [9] was > 50 µg/mL.
